The results in this text go back to US20120053119A1, “THERAPEUTIC METHOD FOR INCREASING PANCREATIC BETA CELL MASS” (priority 2009, published 2012).

The experiment addresses SDF-1 receptor CXCR4 on INS-1 clonal beta cells (UniProt O08565). The experiment in a line: cell-based or functional assay.

Sequence of SDF-1 receptor CXCR4 on INS-1 clonal beta cells (O08565 whole entry): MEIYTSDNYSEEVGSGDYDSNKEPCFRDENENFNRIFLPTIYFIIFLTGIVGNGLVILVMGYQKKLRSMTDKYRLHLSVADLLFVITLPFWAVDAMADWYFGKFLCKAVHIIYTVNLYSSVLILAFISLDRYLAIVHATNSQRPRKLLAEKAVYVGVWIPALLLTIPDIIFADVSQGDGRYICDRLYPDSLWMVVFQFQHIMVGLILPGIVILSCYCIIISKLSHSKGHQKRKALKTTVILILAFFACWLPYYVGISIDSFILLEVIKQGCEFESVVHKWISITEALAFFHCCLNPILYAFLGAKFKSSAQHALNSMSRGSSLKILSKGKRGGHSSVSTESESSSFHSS

“stromal cell-derived factor-1 (SDF-1) (ligand)” registered a Wnt signaling reporter assay (TOPflash/FOPflash luciferase) in INS-1 cells of 0.4 nM.
